No end group written: not given here. *: point of attachment. Decanoyl = CCCCCCCCCC(=O)*
How the values were obtained:
[1] = target: T1, SH3 domain of the Bcr-Abl oncoprotein (UniProt P00519 61-121); test: fluorescence polarization, FIG. 2: D
T1 construct: domain: SH3 domain; also called Bcr-Abl SH3

Bax = Bax (UniProt Q07812 1-171, limits assumed); test: fluorescence polarization, FIG. 2: C
CD4 = CD4 (UniProt P01730 26-396, limits assumed); test: fluorescence polarization, FIG. 2: E
GST-Bcl-2 protein = target: T2, GST-Bcl-2 protein (UniProt P10415 1-205, limits assumed); test: fluorescence polarization competition; 30 nM Flu-SEQ ID NO:30, 0.5 µM GST-Bcl-2, conjugate at 0.005-0.32 µM, 30 minutes at 37° C.
T2 construct: not shown: GST tag
T2 sequence (P10415 1-205 limits assumed): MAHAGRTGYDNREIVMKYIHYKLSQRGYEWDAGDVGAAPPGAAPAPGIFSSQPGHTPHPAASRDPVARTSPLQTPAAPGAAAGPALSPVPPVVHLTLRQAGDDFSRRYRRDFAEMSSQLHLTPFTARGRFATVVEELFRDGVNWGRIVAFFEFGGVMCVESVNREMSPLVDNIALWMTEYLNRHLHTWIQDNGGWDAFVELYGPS

Chain of Bax (Q07812 1-171 limits assumed): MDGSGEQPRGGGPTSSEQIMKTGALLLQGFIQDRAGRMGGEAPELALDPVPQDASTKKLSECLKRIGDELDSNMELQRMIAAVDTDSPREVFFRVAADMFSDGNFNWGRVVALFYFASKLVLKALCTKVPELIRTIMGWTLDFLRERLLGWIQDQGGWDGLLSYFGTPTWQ
T1 sequence (P00519 61-121 limits assumed): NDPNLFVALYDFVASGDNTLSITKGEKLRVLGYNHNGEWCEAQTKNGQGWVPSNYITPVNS

| Binder | binding result [1] | binding result (Bax) | binding result (CD4) | EC50 (GST-Bcl-2 protein) [nM] |
| --- | --- | --- | --- | --- |
| GQVGRQLAIIGDDINR (also: fluorescein label, site of attachment not given here, Synthetic peptide labeled with fluorescein; tracer of the fluorescence polarization assay; also called fluoresceinated BakBH3 peptide; Flu-SQ30) [fluorescein-labeled peptide SEQ ID NO:30 (Flu-SEQ ID NO:30)] | no binding | no binding | no binding |  |
| Decanoyl-KNLWAAQRYGRELRRMSDEFEGSFKGL (also called decyl-K1285) [decyl-SEQ ID NO:56 (CH3(CH2)8COHN-KNLWAAQRYGRELRRMSDEFEGSFKGL)] |  |  |  | 130 |
